Kd data for 1 molecule are collected here from patent publication US20240293573A1 (SEOUL NATIONAL UNIVERSITY R AND DB FOUNDATION, published 2024).

This assay concerns the target T1, Claudin3 (Homo sapiens (Human), UniProt O15551 1-220).
T1 construct: also called CLDN3
T1 sequence: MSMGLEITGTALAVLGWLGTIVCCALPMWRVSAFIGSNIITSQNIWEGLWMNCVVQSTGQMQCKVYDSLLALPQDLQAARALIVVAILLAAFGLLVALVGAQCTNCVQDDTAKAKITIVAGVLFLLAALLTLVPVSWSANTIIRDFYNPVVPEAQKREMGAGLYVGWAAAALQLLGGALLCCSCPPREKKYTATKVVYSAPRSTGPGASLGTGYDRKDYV
Kind of assay: fluorescence of FITC-labeled h4G3cys on CLDN3/TOV-112D cells, one-to-one two-state model.

B1: cysteine-substituted anti-Claudin3 human monoclonal antibody h4G3cys (light chain Q125C) (antibody, human IgG1, kappa, V domains shown)
VH: EVQLLESGGGLVQPGGSLRLSCAASGFTFSSYAMSWVRQAPGKGLEWVSIINPSGASTSHAQRFQGRFTISRDNSKNTLYLQMNSLRAEDTAVYYCARYGRYGSFDIWGQGTLVTVSS
VL: QSVLTQPPSASGTPGQRVTISCSGSTSNIGRNYVSWYQQLPGTAPKLLIYDTSNKHFGVPDRFSGSKSGTSASLAISGLRSEDEADYYCQSYDSSKVVFGGGTKLTVLR
notes: also called modified anti-Claudin3 antibody; anti-Claudin3 antibody variant
For the molecule B1, the affinity, expressed as Kd, was 5.24 nM.
